T1: human CD16b as FACS target of FIGS. 6B-10B (human, UniProt O75015 17-200)
T1 chain: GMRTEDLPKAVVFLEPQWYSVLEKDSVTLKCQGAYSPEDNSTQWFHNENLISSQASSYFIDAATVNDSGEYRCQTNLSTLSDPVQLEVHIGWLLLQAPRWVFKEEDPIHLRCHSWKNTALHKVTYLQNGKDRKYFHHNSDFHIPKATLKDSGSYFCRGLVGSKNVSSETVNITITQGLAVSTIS

T2: cynomolgus monkey CD16a on HEK293 cells expressing cyno monkey CD16a (constructed by Genscript) (cynomolgus monkey, UniProt Q8SPW2 17-254)
T2 chain: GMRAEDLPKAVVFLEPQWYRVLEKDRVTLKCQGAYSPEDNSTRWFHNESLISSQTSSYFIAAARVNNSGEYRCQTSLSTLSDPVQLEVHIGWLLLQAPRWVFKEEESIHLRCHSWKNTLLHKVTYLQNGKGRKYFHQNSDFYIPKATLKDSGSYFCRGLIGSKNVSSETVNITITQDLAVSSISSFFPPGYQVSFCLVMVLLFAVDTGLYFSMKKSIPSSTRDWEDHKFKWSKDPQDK


How the values were obtained:
[1] = biological target: recombinant human CD16a-His protein (Acro Biosystems; catalog #: CDA-H52S1) (human, UniProt P08637 17-208); test: ELISA (OD450; legend says FACS)
recombinant human CD16a-His protein (Acro Biosystems; catalog #: CDA-H52S1), sequence (P08637 17-208): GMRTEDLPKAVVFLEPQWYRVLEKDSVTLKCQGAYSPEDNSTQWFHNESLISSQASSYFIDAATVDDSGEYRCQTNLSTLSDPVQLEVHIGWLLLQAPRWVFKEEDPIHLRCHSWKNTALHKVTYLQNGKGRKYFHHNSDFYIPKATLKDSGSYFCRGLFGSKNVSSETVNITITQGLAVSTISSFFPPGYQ

[2] = biological target: human CD16a on HEK293 cells expressing human CD16a (constructed by Genscript) (human, UniProt P08637 17-254); test: FACS
human CD16a on HEK293 cells expressing human CD16a (constructed by Genscript), sequence (P08637 17-254): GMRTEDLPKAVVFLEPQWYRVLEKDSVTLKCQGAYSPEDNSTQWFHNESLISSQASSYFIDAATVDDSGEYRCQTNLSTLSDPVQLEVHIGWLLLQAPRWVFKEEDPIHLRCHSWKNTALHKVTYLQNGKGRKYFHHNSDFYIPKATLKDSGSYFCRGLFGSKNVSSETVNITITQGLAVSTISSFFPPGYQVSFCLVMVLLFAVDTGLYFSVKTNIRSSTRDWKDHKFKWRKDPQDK

[3] = biological target: T1, human CD16b as FACS target of FIGS. …; test: FACS
[4] = biological target: T2, cynomolgus monkey CD16a on HEK293 cells …; test: FACS

| EC50 [1] | EC50 [2] | EC50 [3] | EC50 [4] | Binder |
| --- | --- | --- | --- | --- |
| 0.0217 µg/mL |  |  |  | AR8887 sdAb fusion protein with mIgG1 Fc (Fc fusion) QVQLVESGGGLVQAGGSLRLSCAVSGFLYYSIGWFRQAPGKEREWVSCISRSGAGTSYANSVKGRSTISRDNDKNTVYLQMNSLKSEDTAVYYCARRATSSCTATMTRGQYDYWGQGTQVTVSSVPRDCGCKPCICTVPEVSSVFIFPPKPKDVLTITLTPKVTCVVVDISKDDPEVQFSWFVDDVEVHTAQTQPREEQFNSTFRSVSELPIMHQDWLNGKEFKCRVNSAAFPAPIEKTISKTKGRPKAPQVYTIPPPKEQMAKDKVSLTCMITDFFPEDITVEWQWNGQPAENYKNTQPIMDTDGSYFVYSKLNVQKSNWEAGNTFTCSVLHEGLHNHHTEKSLSHSPGK |
| 0.0174 µg/mL |  |  |  | AR8866 sdAb fusion protein with mIgG1 Fc (Fc fusion) QVKLEESGGGLVQPGGSLRLSCVASGFTFSVWTMSWVRQAPGKGLEWVSDISHSGIYTTYADSVKGRFTISRDNAKNTLWLQLNALKPEDTAVYYCAQGNRRNSMLSGTLRGQGTQVTVSSVPRDCGCKPCICTVPEVSSVFIFPPKPKDVLTITLTPKVTCVVVDISKDDPEVQFSWFVDDVEVHTAQTQPREEQFNSTFRSVSELPIMHQDWLNGKEFKCRVNSAAFPAPIEKTISKTKGRPKAPQVYTIPPPKEQMAKDKVSLTCMITDFFPEDITVEWQWNGQPAENYKNTQPIMDTDGSYFVYSKLNVQKSNWEAGNTFTCSVLHEGLHNHHTEKSLSHSPGK |
| 0.0227 µg/mL |  |  |  | AR8861 sdAb fusion protein with mIgG1 Fc (Fc fusion) AVQLVDSGGGLVQPGGSLRLSCVASGFTFSIWTMSWVRQAPGKGLEWVSDISHSGLYTTYADSVKGRFTISRDNAKNTLWLQLNALKPEDTAVYYCAQGNRRTSMLSGTLRGQGTQVTVSSVPRDCGCKPCICTVPEVSSVFIFPPKPKDVLTITLTPKVTCVVVDISKDDPEVQFSWFVDDVEVHTAQTQPREEQFNSTFRSVSELPIMHQDWLNGKEFKCRVNSAAFPAPIEKTISKTKGRPKAPQVYTIPPPKEQMAKDKVSLTCMITDFFPEDITVEWQWNGQPAENYKNTQPIMDTDGSYFVYSKLNVQKSNWEAGNTFTCSVLHEGLHNHHTEKSLSHSPGK |
|  | 0.000444 µM | ~195 µM | 0.000928 µM | pTT5-AR8804-3.2 mIgG1Fc (Fc fusion) heavy: QVQLVESGGGVVQPGGSLRLSCAASGSSVSRYAMAWYRQAPGKGREWVAVVRITGIPIYADFVKGRFTISRDNSKNTLYLQMNSLRAEDTAVYYCATGNFNTYTRRYSPSETWGKGTTVTVSSVPRDCGCKPCICTVPEVSSVFIFPPKPKDVLTITLTPKVTCVVVDISKDDPEVQFSWFVDDVEVHTAQTQPREEQFNSTFRSVSELPIMHQDWLNGKEFKCRVNSAAFPAPIEKTISKTKGRPKAPQVYTIPPPKEQMAKDKVSLTCMITDFFPEDITVEWQWNGQPAENYKNTQPIMDTDGSYFVYSKLNVQKSNWEAGNTFTCSVLHEGLHNHHTEKSLSHSPGK |
| 0.018 µg/mL |  |  |  | AR8875 sdAb fusion protein with mIgG1 Fc (Fc fusion) QVQLVESGGGLVQPGGSLRLSCAASGFTFSNYAMTWVRQAPGKGLEWVSSIDRGGSITSYADSVKGRFAISRDNAKNTMYLQMNNLRPEDTARYVCARGDSTYSRLTAAYRGQGTQVTVSSVPRDCGCKPCICTVPEVSSVFIFPPKPKDVLTITLTPKVTCVVVDISKDDPEVQFSWFVDDVEVHTAQTQPREEQFNSTFRSVSELPIMHQDWLNGKEFKCRVNSAAFPAPIEKTISKTKGRPKAPQVYTIPPPKEQMAKDKVSLTCMITDFFPEDITVEWQWNGQPAENYKNTQPIMDTDGSYFVYSKLNVQKSNWEAGNTFTCSVLHEGLHNHHTEKSLSHSPGK |
| 0.0155 µg/mL |  |  |  | AR8776 sdAb fusion protein with mIgG1 Fc (Fc fusion) AVQLVESGGGLVQPGGSLRLSCAASGFTFSNYAMSWVRQAPGKGLEWVSSINRGGSITNYADSVKGRFAISRDNAKNTIYLQMNNLRPEDTAQYSCARGDSTYSRLSAAYRGQGTQVTVSSVPRDCGCKPCICTVPEVSSVFIFPPKPKDVLTITLTPKVTCVVVDISKDDPEVQFSWFVDDVEVHTAQTQPREEQFNSTFRSVSELPIMHQDWLNGKEFKCRVNSAAFPAPIEKTISKTKGRPKAPQVYTIPPPKEQMAKDKVSLTCMITDFFPEDITVEWQWNGQPAENYKNTQPIMDTDGSYFVYSKLNVQKSNWEAGNTFTCSVLHEGLHNHHTEKSLSHSPGK |
| 0.0151 µg/mL |  |  |  | AR8820 sdAb fusion protein with mIgG1 Fc (Fc fusion) QVKLEESGGGLVQAGGSLRLSCAASGSSISRYAMAWYRQGPGKERELVAVVRITGSPIYADFVGGRFTISRDNAKSTVLLQMNSLKPEDTAIYYCNTGNFNTYTRRYSPSETWGQGTQVTVSSVPRDCGCKPCICTVPEVSSVFIFPPKPKDVLTITLTPKVTCVVVDISKDDPEVQFSWFVDDVEVHTAQTQPREEQFNSTFRSVSELPIMHQDWLNGKEFKCRVNSAAFPAPIEKTISKTKGRPKAPQVYTIPPPKEQMAKDKVSLTCMITDFFPEDITVEWQWNGQPAENYKNTQPIMDTDGSYFVYSKLNVQKSNWEAGNTFTCSVLHEGLHNHHTEKSLSHSPGK |
| 0.0158 µg/mL |  |  |  | AR8804 sdAb fusion protein with mIgG1 Fc (Fc fusion) AVQLVDSGGGLVQAGGSLRLSCAASGSSVSRYAMAWYRQAPGKERELVAVVRITGIPIYADFVKGRFTISRDNAKNTVLLQMNSLEPEDTAIYYCNTGNFNTYTRRYSPSETWGQGTQVTVSSVPRDCGCKPCICTVPEVSSVFIFPPKPKDVLTITLTPKVTCVVVDISKDDPEVQFSWFVDDVEVHTAQTQPREEQFNSTFRSVSELPIMHQDWLNGKEFKCRVNSAAFPAPIEKTISKTKGRPKAPQVYTIPPPKEQMAKDKVSLTCMITDFFPEDITVEWQWNGQPAENYKNTQPIMDTDGSYFVYSKLNVQKSNWEAGNTFTCSVLHEGLHNHHTEKSLSHSPGK |
|  | 0.000332 µM | ~167 µM | 0.000745 µM | pTT5-AR8820-2.3mIgG1Fc (Fc fusion) VHH-Fc: EVQLVESGGGLIQPGGSLRLSCAASGSSISRYAMAWYRQAPGKGRELVSVVRITGSPIYADFVGGRFTISRDNSKNTLYLQMNSLRAEDTAVYYCNRGNFNTYTRRYSPSETWGQGTTVTVSSVPRDCGCKPCICTVPEVSSVFIFPPKPKDVLTITLTPKVTCVVVDISKDDPEVQFSWFVDDVEVHTAQTQPREEQFNSTFRSVSELPIMHQDWLNGKEFKCRVNSAAFPAPIEKTISKTKGRPKAPQVYTIPPPKEQMAKDKVSLTCMITDFFPEDITVEWQWNGQPAENYKNTQPIMDTDGSYFVYSKLNVQKSNWEAGNTFTCSVLHEGLHNHHTEKSLSHSPGK |
|  | 0.000384 µM |  | 0.000772 µM | pTT5-AR8820-1.3mIgG1Fc (Fc fusion) heavy: QVQLVESGGGVVQPGGSLRLSCAASGSSISRYAMAWYRQAPGKGRELVAVVRITGSPIYADFVGGRFTISRDNSKNTLYLQMNSLRAEDTAVYYCNTGNFNTYTRRYSPSETWGKGTTVTVSSVPRDCGCKPCICTVPEVSSVFIFPPKPKDVLTITLTPKVTCVVVDISKDDPEVQFSWFVDDVEVHTAQTQPREEQFNSTFRSVSELPIMHQDWLNGKEFKCRVNSAAFPAPIEKTISKTKGRPKAPQVYTIPPPKEQMAKDKVSLTCMITDFFPEDITVEWQWNGQPAENYKNTQPIMDTDGSYFVYSKLNVQKSNWEAGNTFTCSVLHEGLHNHHTEKSLSHSPGK |
|  | 0.00038 µM | ~65.6 µM | 0.00092 µM | pTT5-AR8820-1.1mIgG1Fc (Fc fusion) heavy: QVQLVESGGGVVQPGGSLRLSCAASGSSISRYAMAWYRQAPGKGRELVAVVRITGSPIYADFVGGRFTISRDNSKNTLYLQMNSLRAEDTAVYYCATGNFNTYTRRYSPSETWGKGTTVTVSSVPRDCGCKPCICTVPEVSSVFIFPPKPKDVLTITLTPKVTCVVVDISKDDPEVQFSWFVDDVEVHTAQTQPREEQFNSTFRSVSELPIMHQDWLNGKEFKCRVNSAAFPAPIEKTISKTKGRPKAPQVYTIPPPKEQMAKDKVSLTCMITDFFPEDITVEWQWNGQPAENYKNTQPIMDTDGSYFVYSKLNVQKSNWEAGNTFTCSVLHEGLHNHHTEKSLSHSPGK |
|  | 0.000412 µM |  | 0.000838 µM | pTT5-AR8804-3.3mIgG1Fc (Fc fusion) heavy: QVQLVESGGGVVQPGGSLRLSCAASGSSVSRYAMAWYRQAPGKGRELVAVVRITGIPIYADFVKGRFTISRDNSKNTLYLQMNSLRAEDTAVYYCNTGNFNTYTRRYSPSETWGKGTTVTVSSVPRDCGCKPCICTVPEVSSVFIFPPKPKDVLTITLTPKVTCVVVDISKDDPEVQFSWFVDDVEVHTAQTQPREEQFNSTFRSVSELPIMHQDWLNGKEFKCRVNSAAFPAPIEKTISKTKGRPKAPQVYTIPPPKEQMAKDKVSLTCMITDFFPEDITVEWQWNGQPAENYKNTQPIMDTDGSYFVYSKLNVQKSNWEAGNTFTCSVLHEGLHNHHTEKSLSHSPGK |
|  | 0.000494 µM | ~7840 µM | 0.000787 µM | pTT5-AR8820-2.1mIgG1Fc (Fc fusion) VHH-Fc: EVQLVESGGGLIQPGGSLRLSCAASGSSISRYAMAWYRQAPGKGRELVSVVRITGSPIYADFVGGRFTISRDNSKNTLYLQMNSLRAEDTAVYYCATGNFNTYTRRYSPSETWGQGTTVTVSSVPRDCGCKPCICTVPEVSSVFIFPPKPKDVLTITLTPKVTCVVVDISKDDPEVQFSWFVDDVEVHTAQTQPREEQFNSTFRSVSELPIMHQDWLNGKEFKCRVNSAAFPAPIEKTISKTKGRPKAPQVYTIPPPKEQMAKDKVSLTCMITDFFPEDITVEWQWNGQPAENYKNTQPIMDTDGSYFVYSKLNVQKSNWEAGNTFTCSVLHEGLHNHHTEKSLSHSPGK |
